Molecular target: Gorilla bocavirus 1 (GBoV1) VP3, assembled as virus-like particles (VP3-only capsids) (Gorilla bocavirus 1)
Experiment: cryo-EM structure; purified GBoV1 VLPs (wild-type and VP3-only) in 1x PBS vitrified on holey carbon grids; Titan Krios 300 kV; cisTEM reconstruction with imposed icosahedral symmetry; 2.76 Å

Gorilla bocavirus 1 (GBoV1) VP3, assembled as virus-like particles (VP3-only capsids) (natural protein)
stoichiometry N: 60
